Measured values published in patent US20150377889.

Experiments:
[1] = test system: recombinant wild type full-length human galectin-3, His-tagged (unphosphorylated)
[2] = test system: recombinant wild type galectin-3 phosphorylated in vitro by c-Abl (galectin-3 Tyr(P)-107), His-tagged
[3] = test system: galectin-3 secreted by PC3M cells after EGF (and PDGF) treatment, tyrosine phosphorylated (galectin-3 Tyr(P)-107)
Sequence of galectin-3 secreted by PC3M cells after EGF (and PDGF) treatment, tyrosine phosphorylated (galectin-3 Tyr(P)-107) (chain, as listed by the source): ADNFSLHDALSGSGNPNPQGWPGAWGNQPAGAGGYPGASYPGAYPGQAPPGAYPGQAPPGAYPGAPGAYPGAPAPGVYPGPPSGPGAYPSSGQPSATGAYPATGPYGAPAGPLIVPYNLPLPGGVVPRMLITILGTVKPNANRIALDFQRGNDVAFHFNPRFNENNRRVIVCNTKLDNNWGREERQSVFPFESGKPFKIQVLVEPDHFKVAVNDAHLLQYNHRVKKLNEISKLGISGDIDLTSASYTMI

Sequence of recombinant wild type galectin-3 phosphorylated in vitro by c-Abl (galectin-3 Tyr(P)-107), His-tagged (chain, as listed by the source): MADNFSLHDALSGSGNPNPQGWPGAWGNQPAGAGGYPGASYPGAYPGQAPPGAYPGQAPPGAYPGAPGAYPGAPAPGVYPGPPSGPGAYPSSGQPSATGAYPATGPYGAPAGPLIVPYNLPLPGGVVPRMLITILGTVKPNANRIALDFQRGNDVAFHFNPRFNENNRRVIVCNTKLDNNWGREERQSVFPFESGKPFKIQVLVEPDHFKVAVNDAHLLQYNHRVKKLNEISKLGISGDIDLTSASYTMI

Question: How did the “cleavage of galectin-3 by PSA (2 h at room temperature, Western blot with anti-galectin-3 antibody)” value [1] turn out when active prostate specific antigen (PSA) was run?
Answer: Its value is “FIG. 1A demonstrated that phosphorylation of Tyr-107 blocks the cleavage of galectin-3 by PSA”.

Question: What about the “cleavage of galectin-3 by PSA (2 h at room temperature, Western blot with anti-galectin-3 and anti-Tyr(P) antibodies)” value [2] of the same substance?
Answer: The value was “phosphorylation of Tyr-107 blocks the cleavage of galectin-3 by PSA”.

Question: With endogenous PSA secreted by LNCaP cells as the substance, how does the “cleavage of secreted galectin-3 in conditioned medium of LNCaP/PC3M co-culture with and without EGF (Western blot with HL31)” value [3] read?
Answer: Its value is “phosphorylation blocks cleavage of galectin-3 in conditioned medium”.

Question: phosphatase and tensin homolog (PTEN) was tested. Which “dephosphorylation of galectin-3 Tyr(P)-107 (PTEN for 2 hr at 30 C, pTyr and Gal-3 blots)” value [2] did it give?
Answer: Its value is “This was then proven by phosphorylating galectin-3 in vitro with active c-Abl and then treating it with PTEN”.
